Results as given in patent publication US20250235548A1, “ANTIBODY-DRUG CONJUGATES TARGETING NAPI2B AND METHODS OF USE” (Zymeworks BC Inc., priority 2022, published 2025).

Key:
[1] = Thermal stability by differential scanning calorimetry (Example 8); assay type: physicochemical; settings: DSC, 0.4 mg/mL in PBS, 20° C. to 100° C. at 60° C./hr
Method: The thermal stability of the humanized antibody variants was assessed by differential scanning calorimetry (DSC) as described below.
400 μL of purified samples primarily at concentrations of 0.4 mg/mL in PBS were used for DSC analysis with a VP-Capillary DSC (Malvern Panalytical Inc., Westborough, MA). At the start of each DSC run, 5 buffer blank injections were performed to stabilize the baseline, and a buffer injection was placed before each sample injection for referencing. Each sample was scanned from 20° C. to 100° C. at a 60° C./hr rate, with low feedback, 8 sec filter, 3 min pre-scan thermostat, and 70 psi nitrogen pressure. The resulting thermograms were referenced and analyzed using Origin 7 software (OriginLab Corporation, Northampton, MA) to determine melting temperature (Tm) as an indicator of thermal stability.

[2] = biological target: T1, NaPi2b expressed on IGROV-1 cells (Homo sapiens, UniProt O95436); assay: Cellular binding of bivalent antibodies by flow cytometry (Example 16); settings: NB = no cellular binding; for Bmax, IGROV-1: AF647 GeoMean, 24 hours at 4° C.
T1 construct: endogenous NaPi2b-expressing cancer cell lines IGROV-1 (ovarian carcinoma); endogenous in cells; host or cells: IGROV-1
T1 sequence (O95436 1-690): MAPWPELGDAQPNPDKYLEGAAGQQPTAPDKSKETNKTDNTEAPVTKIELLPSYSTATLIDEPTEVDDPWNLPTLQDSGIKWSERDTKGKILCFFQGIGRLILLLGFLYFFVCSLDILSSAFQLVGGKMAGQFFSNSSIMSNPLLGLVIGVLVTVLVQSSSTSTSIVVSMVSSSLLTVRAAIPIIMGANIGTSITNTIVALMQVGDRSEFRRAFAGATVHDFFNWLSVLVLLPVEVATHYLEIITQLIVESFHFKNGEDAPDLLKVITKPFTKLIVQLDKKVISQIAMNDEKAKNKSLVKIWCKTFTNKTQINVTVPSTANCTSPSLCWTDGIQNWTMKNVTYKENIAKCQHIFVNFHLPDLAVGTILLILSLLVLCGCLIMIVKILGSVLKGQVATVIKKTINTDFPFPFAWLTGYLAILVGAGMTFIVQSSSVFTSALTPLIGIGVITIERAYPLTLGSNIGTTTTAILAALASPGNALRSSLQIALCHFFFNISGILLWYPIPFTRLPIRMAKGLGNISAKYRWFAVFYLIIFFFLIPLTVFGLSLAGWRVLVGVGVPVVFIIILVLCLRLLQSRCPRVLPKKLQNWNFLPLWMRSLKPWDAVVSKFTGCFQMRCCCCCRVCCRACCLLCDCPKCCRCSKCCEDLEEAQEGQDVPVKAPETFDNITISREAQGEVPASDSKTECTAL
Method: IGROV-1 cells express endogenous NaPi2b at a high level.
Briefly, cells were seeded at 50,000 cells/well in conical-bottom 96-well plates and treated with test antibody for 24 hours at 4° C. to prevent internalization. […] Following incubation and washing, fluorescence was detected by flow cytometry on a BD LSRFortessa™ Cell Analyzer (BD Biosciences, Franklin Lake, NJ) with 1,000 minimum events collected per well.

Row | Molecule | Fab Tm (° C.) [1] | Bmax, IGROV-1 [2] | Curve Hill Slope (h), IGROV-1 [2]
1 | v29453: "Representative humanized antibody variants ... of the mouse antibody" that specifically binds hNaPi2b (antibody, V domains shown, v29449, v29453, v29457 VH (H4); v29453, v29454, v29455, v29456 VL (L2)) VH: QVQLVQSGAEVKKPGASVKMSCKASGFTFTSYNVHWVRQAPGQGLEWIAAISPGNGDLSYAQKFQGRATLTVDRSTSTAYMELSSLRSEDTAVYYCARGRTGMGAVDYWGQGTLVTVSS VL: DVQMTQSPSSLSASVGDRVTITCRASQDVYSYLNWYQQKPGKAVKLLIYYTSRLQSGVPSRFSGSGSGTDYTLTISSLQPEDFATYYCQQYNIFPWTFGQGTKLEIK | 78.9 °C | 44,480 | 1.2
2 | v29460: "Representative humanized antibody variants ... of the mouse antibody" that specifically binds hNaPi2b (antibody, V domains shown, v29452, v29456, v29460 VH (H1); v29457, v29458, v29459, v29460 VL (L1)) VH: QVQLVQSGAEVKKPGASVKVSCKASGFTFTSYNVHWVRQAPGQGLEWMGAISPGNGDLSYAQKFQGRVTMTRDTSTSTVYMELSSLRSEDTAVYYCARGRTGMGAVDYWGQGTLVTVSS VL: DIQMTQSPSSLSASVGDRVTITCRASQDVYSYLNWYQQKPGKAPKLLIYYTSRLQSGVPSRFSGSGSGTDFTLTISSLQPEDFATYYCQQYNIFPWTFGQGTKLEIK | 80.3 °C | 40,071 | 1.2
3 | v29458: "Representative humanized antibody variants ... of the mouse antibody" that specifically binds hNaPi2b (antibody, V domains shown, v29450, v29454, v29458 VH (H3); v29457, v29458, v29459, v29460 VL (L1)) VH: QVQLVQSGAEVKKPGASVKMSCKASGFTFTSYNVHWVRQAPGQGLEWIAAISPGNGDLSYAQKFQGRATLTVDTSTSTAYMELSSLRSEDTAVYYCARGRTGMGAVDYWGQGTLVTVSS VL: DIQMTQSPSSLSASVGDRVTITCRASQDVYSYLNWYQQKPGKAPKLLIYYTSRLQSGVPSRFSGSGSGTDFTLTISSLQPEDFATYYCQQYNIFPWTFGQGTKLEIK | 81.6 °C | 40,793 | 1.1
4 | v29457: "Representative humanized antibody variants ... of the mouse antibody" that specifically binds hNaPi2b (antibody, V domains shown, v29449, v29453, v29457 VH (H4); v29457, v29458, v29459, v29460 VL (L1)) VH: QVQLVQSGAEVKKPGASVKMSCKASGFTFTSYNVHWVRQAPGQGLEWIAAISPGNGDLSYAQKFQGRATLTVDRSTSTAYMELSSLRSEDTAVYYCARGRTGMGAVDYWGQGTLVTVSS VL: DIQMTQSPSSLSASVGDRVTITCRASQDVYSYLNWYQQKPGKAPKLLIYYTSRLQSGVPSRFSGSGSGTDFTLTISSLQPEDFATYYCQQYNIFPWTFGQGTKLEIK | 80.5 °C | 44,539 | 1.0
5 | v29455: "Representative humanized antibody variants ... of the mouse antibody" that specifically binds hNaPi2b (antibody, V domains shown, v29451, v29455, 29459 VH (H2); v29453, v29454, v29455, v29456 VL (L2)) VH: QVQLVQSGAEVKKPGASVKVSCKASGFTFTSYNVHWVRQAPGQGLEWIAAISPGNGDLSYAQKFQGRVTMTVDTSTSTVYMELSSLRSEDTAVYYCARGRTGMGAVDYWGQGTLVTVSS VL: DVQMTQSPSSLSASVGDRVTITCRASQDVYSYLNWYQQKPGKAVKLLIYYTSRLQSGVPSRFSGSGSGTDYTLTISSLQPEDFATYYCQQYNIFPWTFGQGTKLEIK | 81.5 °C | 41,917 | 1.1
6 | v29450: "Representative humanized antibody variants ... of the mouse antibody" that specifically binds hNaPi2b (antibody, V domains shown, v29450, v29454, v29458 VH (H3); v29449, v29450, v29451, v29452 VL (L3)) VH: QVQLVQSGAEVKKPGASVKMSCKASGFTFTSYNVHWVRQAPGQGLEWIAAISPGNGDLSYAQKFQGRATLTVDTSTSTAYMELSSLRSEDTAVYYCARGRTGMGAVDYWGQGTLVTVSS VL: DVQMTQSPSSLSASVGDRVTITCRASQDVYSYLNWYQQKPGKAVKLLIYYTSRLQSGVPSRFSGSGSGTDYTLTISSLQPEDIATYYCQQYNIFPWTFGQGTKLEIK | 81.0 °C | 43,809 | 1.2
7 | v29454: "Representative humanized antibody variants ... of the mouse antibody" that specifically binds hNaPi2b (antibody, V domains shown, v29450, v29454, v29458 VH (H3); v29453, v29454, v29455, v29456 VL (L2)) VH: QVQLVQSGAEVKKPGASVKMSCKASGFTFTSYNVHWVRQAPGQGLEWIAAISPGNGDLSYAQKFQGRATLTVDTSTSTAYMELSSLRSEDTAVYYCARGRTGMGAVDYWGQGTLVTVSS VL: DVQMTQSPSSLSASVGDRVTITCRASQDVYSYLNWYQQKPGKAVKLLIYYTSRLQSGVPSRFSGSGSGTDYTLTISSLQPEDFATYYCQQYNIFPWTFGQGTKLEIK | 79.7 °C | 42,278 | 1.0
8 | v29451: "Representative humanized antibody variants ... of the mouse antibody" that specifically binds hNaPi2b (antibody, V domains shown, v29451, v29455, 29459 VH (H2); v29449, v29450, v29451, v29452 VL (L3)) VH: QVQLVQSGAEVKKPGASVKVSCKASGFTFTSYNVHWVRQAPGQGLEWIAAISPGNGDLSYAQKFQGRVTMTVDTSTSTVYMELSSLRSEDTAVYYCARGRTGMGAVDYWGQGTLVTVSS VL: DVQMTQSPSSLSASVGDRVTITCRASQDVYSYLNWYQQKPGKAVKLLIYYTSRLQSGVPSRFSGSGSGTDYTLTISSLQPEDIATYYCQQYNIFPWTFGQGTKLEIK | 83.0 °C | 46,170 | 1.1
9 | v29449: "Representative humanized antibody variants ... of the mouse antibody" that specifically binds hNaPi2b (antibody, V domains shown, v29449, v29453, v29457 VH (H4); v29449, v29450, v29451, v29452 VL (L3)) VH: QVQLVQSGAEVKKPGASVKMSCKASGFTFTSYNVHWVRQAPGQGLEWIAAISPGNGDLSYAQKFQGRATLTVDRSTSTAYMELSSLRSEDTAVYYCARGRTGMGAVDYWGQGTLVTVSS VL: DVQMTQSPSSLSASVGDRVTITCRASQDVYSYLNWYQQKPGKAVKLLIYYTSRLQSGVPSRFSGSGSGTDYTLTISSLQPEDIATYYCQQYNIFPWTFGQGTKLEIK | 80.0 °C | 44,460 | 1.3
